Laboratory results from publication PMC5368077, “Structural and functional insights into thermally stable cytochrome c′ from a thermophile” (Protein Science : A Publication of the Protein Society, 2017).
One block for each compound: values may come before it.

Legend:
[1] = target: PHCP F11T/T18F/F71D triple variant (Hydrogenophilus thermoluteolus); assay: AUC; sedimentation velocity, 5 μM protein, 10 mM Tris-HCl (pH 7.5) with 100 mM NaCl, 20°C, 42,000 rpm, c(s) model in SEDFIT; n = 1
[2] = target: recombinant PHCP wild-type (Hydrogenophilus thermoluteolus); assay: as above
[3] = target: PHCP F11T variant (Hydrogenophilus thermoluteolus); assay: AUC; sedimentation velocity of the single variants, data not shown; the same analysis as for the wild-type
[4] = target: PHCP T17E variant (Hydrogenophilus thermoluteolus); assay: as above
[5] = target: T1, PHCP (Hydrogenophilus thermoluteolus cytochrome c') (Hydrogenophilus thermoluteolus, UniProt F7J213); assay: visible absorption spectroscopy; type: binding; conditions: reduced (dithionite) protein 6 uM; 0.5% (v/v) ligand; 10 mM potassium phosphate pH 7.0; 25 C; isomer of butyl group not stated
T1 construct: gene cytc; mature protein, N-terminal DALKP; authentic protein from H. thermoluteolus cells for crystal
T1 sequence (F7J213 20-154): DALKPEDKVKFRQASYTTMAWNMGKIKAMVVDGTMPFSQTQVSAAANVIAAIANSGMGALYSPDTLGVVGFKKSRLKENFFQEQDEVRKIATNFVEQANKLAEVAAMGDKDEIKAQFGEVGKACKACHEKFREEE

[6] = target: PHCP T18F variant (Hydrogenophilus thermoluteolus); assay: AUC; sedimentation velocity of the single variants, data not shown; the same analysis as for the wild-type
[7] = target: PHCP F71D variant (Hydrogenophilus thermoluteolus); assay: as above
[8] = target: PHCP T17E/A20G/L76V triple variant (Hydrogenophilus thermoluteolus); assay: AUC; sedimentation velocity, 5 μM protein, 10 mM Tris-HCl (pH 7.5) with 100 mM NaCl, 20°C, 42,000 rpm, c(s) model in SEDFIT; n = 1
[9] = target: PHCP A20G variant (Hydrogenophilus thermoluteolus); assay: AUC; sedimentation velocity of the single variants, data not shown; the same analysis as for the wild-type
[10] = target: PHCP L76V variant (Hydrogenophilus thermoluteolus); assay: as above

Compound: PHCP F11T variant (natural protein)
stoichiometry N [3]: 2

Compound: [C-]#[N+]CCCC [butyl-isocyanide]
visible absorption spectroscopy [5]: PHCP is able to bind CO, NO, and large ligands such as butyl‐isocyanide and imidazole

Compound: PHCP F71D variant (natural protein)
stoichiometry N [7]: 2

Compound: PHCP T17E/A20G/L76V triple variant (natural protein)
population of the dimer species [8]: 91.1% | stoichiometry N [8]: 2

More lines, now with the values ahead:

population of the dimer species [1]: 97.7% | stoichiometry N [1]: 2
Compound: PHCP F11T/T18F/F71D triple variant (natural protein)

population of the dimer species [2]: 99.9% | stoichiometry N [2]: 2
Compound: recombinant PHCP wild-type (natural protein)

stoichiometry N [4]: 2
Compound: PHCP T17E variant (natural protein)

stoichiometry N [6]: 2
Compound: PHCP T18F variant (natural protein)

stoichiometry N [9]: 2
Compound: PHCP A20G variant (natural protein)

stoichiometry N [10]: 2
Compound: PHCP L76V variant (natural protein)
